Results reported in doi:10.1101/2025.09.11.674065.

Molecular target: His6-AstR (Acinetobacter baumannii ATCC 17978VU)
Test: SEC; size exclusion chromatography with standard curves; purified His6-AstR; Size Exclusion Buffer 50 mM Tris, 300 mM NaCl, pH 8

stoichiometry N: 2
Substance: His6-AstR (natural protein)
